≈ marks a conversion by molar mass, not a printed value. Where “and” joins values, the source holds several entries; their conditions need not be identical. Equal values may be shown once. Read-outs that look alike come from different tables or passages of the source.
Legend:
[1] = system: S. pyogenes; assay: MIC by broth microdilution; assay type: cell-based, Streptococcus pyogenes; conditions: S. pyogenes (group A), N=100
Procedure: (§1) Minimal inhibitory concentrations (MICs) of exebacase against staphylococci were determined by broth microdilution (BMD) using a nonstandard antimicrobial susceptibility testing (AST) medium comprised of cation-adjusted Mueller Hinton broth (caMHB) supplemented with horse serum (Sigma Aldrich) and dithiothreitol (DTT; Sigma Aldrich) to final concentrations of 25% and 0.5 mM, respectively. This medium, referred to as caMHB-HSD, is approved for use in exebacase AST by the Clinical and Laboratory Standards Institute (CLSI) (CLSI. 2017, Jan. 16-17. AST Subcommittee Working Group Meetings and Plenary. AST Meeting Files & Resources, clsi.org/education/microbiology/ast/ast-meeting-files-resources/. Additional supplementation with 2.5% lysed red blood cells (Remel™, ThermoFisher) was included for analyses of streptococcal isolates, as recommended by CLSI. See CLSI, 2015. Methods for Dilution Antimicrobial Susceptibility Tests for Bacteria That Grow Aerobically, 10th Edition. Clinical and Laboratory Standards Institute, Wayne, Pa.
(§2) Daptomycin (Sigma Aldrich) and vancomycin hydrochloride (Sigma Aldrich) were tested following the reference BMD method for each. See CLSI. 2015. Methods for Dilution Antimicrobial Susceptibility Tests for Bacteria That Grow Aerobically, 10th Edition. Clinical and Laboratory Standards Institute, Wayne, Pa.

[2] = system: S. anginosus; assay: MIC by broth microdilution; assay type: cell-based, Streptococcus anginosus; conditions: S. anginosus (viridans), N=10
Procedure: as §1, §2

[3] = system: S. capitis; assay: MIC by broth microdilution; assay type: cell-based, Staphylococcus capitis; conditions: S. capitis, N=13
Procedure: as §1, §2

[4] = system: S. oralis; assay: MIC by broth microdilution; assay type: cell-based, Streptococcus oralis; conditions: S. oralis (viridans), N=15
Procedure: as §1, §2

[5] = system: S. gordonii; assay: MIC by broth microdilution; assay type: cell-based, Streptococcus gordonii; conditions: S. gordonii (viridans), N=11
Procedure: as §1, §2

[6] = system: all staphylococci tested; assay: MIC by broth microdilution; assay type: cell-based
Procedure: as §2

[7] = system: S. warneri; assay: MIC by broth microdilution; assay type: cell-based, Staphylococcus warneri; conditions: S. warneri, N=23
Procedure: as §1, §2

[8] = system: S. gallolyticus; assay: MIC by broth microdilution; assay type: cell-based, Streptococcus gallolyticus; conditions: S. gallolyticus (bovis), N=19
Procedure: as §1, §2

[9] = system: S. hyicus; assay: MIC by broth microdilution; assay type: cell-based, Staphylococcus hyicus; conditions: n=1 isolate
Procedure: as §1

[10] = system: S. epidermidis; assay: MIC by broth microdilution; assay type: cell-based, Staphylococcus epidermidis; conditions: N=52
Procedure: as §1, §2

[11] = system: S. aureus bacteremia/endocarditis; assay: Phase II clinical study, CF-301 plus standard of care antibiotics; assay type: in vivo, human
Procedure: These 116 patients constituted the microbiological intent to treat (mITT) population of a Phase II clinical study and was the primary efficacy analysis population. The primary efficacy endpoint was the clinical responder rate (CRR) at Day 14. Diagnosis and clinical outcomes were determined by a blinded Adjudication Committee.

[12] = system: Staphylococcus hominis; assay: MIC by broth microdilution; assay type: cell-based; conditions: n=2 strains, listed as exebacase
Procedure: as §1

[13] = system: S. simulans; assay: MIC by broth microdilution; assay type: cell-based, Staphylococcus simulans; conditions: n=1 isolate
Procedure: as §1

[14] = healthy subjects, estimated previously; cited from earlier work
[15] = system: S. sciuri; assay: MIC by broth microdilution; assay type: cell-based, Staphylococcus sciuri; conditions: n=3 isolates
Procedure: as §1

[16] = system: S. intermedius; assay: MIC by broth microdilution; assay type: cell-based, Streptococcus intermedius; conditions: S. intermedius (viridans), N=10
Procedure: as §1, §2

[17] = system: S. pseudintermedius; assay: MIC by broth microdilution; assay type: cell-based, Staphylococcus pseudintermedius; conditions: each of n=6 isolates
Procedure: as §1

CCCCCCCCCC(=O)N[C@@H](Cc1c[nH]c2ccccc12)C(=O)N[C@H](CC(N)=O)C(=O)N[C@@H](CC(=O)O)C(=O)N[C@@H]1C(=O)NCC(=O)N[C@@H](CCCN)C(=O)N[C@@H](CC(=O)O)C(=O)N[C@H](C)C(=O)N[C@@H](CC(=O)O)C(=O)NCC(=O)N[C@H](CO)C(=O)N[C@@H]([C@H](C)CC(=O)O)C(=O)N[C@@H](CC(=O)c2ccccc2N)C(=O)O[C@@H]1C [DAP, Daptomycin]
MIC Range [1]: 0.016 to 0.06 µg/mL
MIC50 ([1]; Streptococcus pyogenes, read-out: MIC50): 0.03 µg/mL (≈ 0.0185 µM)
MIC90 ([1]; Streptococcus pyogenes, read-out: MIC90): 0.06 µg/mL (≈ 0.037 µM)
MIC Range [2]: 0.25 to 0.5 µg/mL
MIC50 ([2]; Streptococcus anginosus, read-out: MIC50): 0.5 µg/mL (≈ 0.309 µM)
MIC90 ([2]; Streptococcus anginosus, read-out: MIC90): 0.5 µg/mL (≈ 0.309 µM)
MIC Range [3]: 0.25 to 1 µg/mL
MIC50 ([3]; Staphylococcus capitis, read-out: MIC50): 0.5 µg/mL (≈ 0.309 µM)
MIC90 ([3]; Staphylococcus capitis, read-out: MIC90): 1 µg/mL (≈ 0.617 µM)
MIC Range [4]: 0.25 to 1 µg/mL
MIC50 ([4]; Streptococcus oralis, read-out: MIC50): 0.5 µg/mL (≈ 0.309 µM)
MIC90 ([4]; Streptococcus oralis, read-out: MIC90): 0.5 µg/mL (≈ 0.309 µM)
MIC Range [5]: 0.25 to 1 µg/mL
MIC50 ([5]; Streptococcus gordonii, read-out: MIC50): 0.5 µg/mL (≈ 0.309 µM)
MIC90 ([5]; Streptococcus gordonii, read-out: MIC90): 0.5 µg/mL (≈ 0.309 µM)
MIC Range [6]: 0.125 to 2 µg/mL
MIC Range [7]: 0.25 to 2 µg/mL
MIC50 ([7]; Staphylococcus warneri, read-out: MIC50): 0.5 µg/mL (≈ 0.309 µM)
MIC90 ([7]; Staphylococcus warneri, read-out: MIC90): 2 µg/mL (≈ 1.23 µM)
MIC Range [8]: 0.06 to 0.5 µg/mL
MIC50 ([8]; Streptococcus gallolyticus, read-out: MIC50): 0.125 µg/mL (≈ 0.0771 µM)
MIC90 ([8]; Streptococcus gallolyticus, read-out: MIC90): 0.25 µg/mL (≈ 0.154 µM)

B1: CF-301: anti-staphylococcal lysin encoded within a prophage of the Streptococcus suis genome, SEQ ID NO: 2 with or without initial methionine (protein, listed as Streptococcus suis)
chain: MTTVNEALNNVRAQVGSGVSVGNGECYALASWYERMISPDATVGLGAGVGWVSGAIGDTISAKNIGSSYNWQANGWTVSTSGPFKAGQIVTLGATPGNPYGHVVIVEAVDGDRLTILEQNYGGKRYPVRNYYSAASYRQQVVHYITPPGTVAQSAPNLAGSRSYRETGTMTVTVDALNVRRAPNTSGEIVAVYKRGESFDYDTVIIDVNGYVWVSYIGGSGKRNYVATGATKDGKRFGNAWGTFK
MIC50 [1]: 1 µg/mL
MIC90 [1]: 2 µg/mL
MIC Range [1]: 0.5 to 4 µg/mL
MIC [9]: 0.25 µg/mL
MIC50 [2]: 32 µg/mL
MIC90 [2]: 64 µg/mL
MIC Range [2]: 1 to 64 µg/mL
MIC50 [3]: 1 µg/mL
MIC90 [3]: 2 µg/mL
MIC Range [3]: 0.25 to 4 µg/mL
MIC50 [4]: 4 µg/mL
MIC90 [4]: 64 µg/mL
MIC Range [4]: 0.5 to 64 µg/mL
MIC50 [10]: 0.5 µg/mL
MIC90 [10]: 0.5 µg/mL
MIC Range [10]: 0.125 to 2 µg/mL
hypersensitivity ([11]; CF-301 treatment group): no reports of hypersensitivity
incidence of treatment emergent adverse events (TEAEs) ([11]; CF-301 treatment group): 88.9%
serious TEAEs ([11]; CF-301 treatment group): 47.2%
CRR higher than in patients treated with standard of care antibiotics alone ([11]; MRSA-infected patients): about 40%
CRR ([11]; MRSA-infected patients, CF-301 and standard of care antibiotics): 74.10%
tolerability ([11]; addition of CF-301 to a standard of care antibiotic regimen): well-tolerated
died ([11]; from study drug administration through 28 days after the end of SOC antibiotic treatment): 19.4%
clinical responder rate (CRR) at Day 14 ([11]; mITT population, single two hour infusion of CF-301 plus SOC antibiotics): 70.4%
CRR ([11]; patients with bacteremia alone): 81.8%
CRR ([11]; subset with bacteremia/right-sided endocarditis): 80%
MIC [12]: 0.125 µg/mL and 0.25 µg/mL
MIC [13]: 0.125 µg/mL
MIC50 [5]: 4 µg/mL
MIC90 [5]: 8 µg/mL
MIC Range [5]: 0.5 to 8 µg/mL
CL [14]: 7.1 L/h
volume distribution (Vd) [14]: 27.7 L
MIC [15]: 2 µg/mL
effect of age on AUC0-24 or Cmax (covariate on peripheral clearance): less than 4%
CL lower than in healthy subjects (patients vs healthy subjects): 40%
Vd lower than in healthy subjects (patients vs healthy subjects): 17%
fold higher AUC0-24 or Cmax than patients with normal renal function (patients with moderate and severe renal impairment, expected from PPK model): 1.3 to 2 fold
Total volume distribution (patients, PPK model): 20.2 L
central compartment (Vc) (patients, PPK model, RSE 8.2%): 4.5 L
Clearance (patients, three-compartment PPK model, RSE 5.5%): 4.2 Liters (L)/hour (hr)
MIC50 [16]: 0.25 µg/mL
MIC90 [16]: 0.25 µg/mL
MIC Range [16]: 0.06 to 0.5 µg/mL
MIC50 [7]: 0.5 µg/mL
MIC90 [7]: 1 µg/mL
MIC Range [7]: 0.06 to 1 µg/mL
MIC50 [8]: 64 µg/mL
MIC90 [8]: >512 µg/mL
MIC [17]: 0.25 µg/mL

— patent US20220160842A1, “METHOD OF TREATING INFECTIVE ENDOCARDITIS” (priority 2019, published 2022)
